Substrate in series [1]: O=c1ccn([C@@H]2O[C@H](CO[P@@](=O)(O)O[P@@](=O)(O)O[C@H]3O[C@H](CO)[C@@H](O)[C@H](O)[C@H]3O)[C@@H](O)[C@H]2O)c(=O)[nH]1
The experiment in a line: purified protein. The conditions noted are these: details in supplement Table S2.

Substrate in series [2]: O=c1ccn([C@@H]2O[C@H](COP(=O)(O)OP(=O)(O)O[C@H]3OC[C@@H](O)[C@H](O)[C@H]3O)[C@@H](O)[C@H]2O)c(=O)[nH]1
The experiment in a line: purified protein. Conditions: acceptor astragaloside III (5); details in supplement Table S2.

As a reminder, the Km is the concentration of substrate that gives half-maximal velocity.

B1: AmUGT7 (Astragalus mongholicus) (protein)
chain: MESQQSHEQLNVTFLPYPTPGHMIPMIDTARLFAKHGATVTIITTHANASTFQKHIDSDISLGYPIKTQLIQFPAAQVGLPDGVENVKDGSSLELLGKISQGIFLLQGQIELLFQHLQPDCIVTDMMYPWTVESAAKLGIPRLHYYSTSYFSNCASYFVRKYRPHDSLDSDDQKFTVPCLPISIEMTPLQLPEWIRTKNPSTGGFFEAMYESEKNSYGTLYNSFHELESDYEQLNKTTMGIKSWSVGPVSAWANKDDEKKANRGHMGESGKELEWLNWLNSKQNDSVLYVSFGSLTRLPNAQLLEIAHGLEISGHNFIWVIRKNDRDEDGDNFLQEFEQRMKESKKGYIIWNWAPQLLILDQPAVGGIVTHCGWNSILESINAGLPMIAWPMFAEQFYNERLLVDVLKIGVPVGVKENKYWFNIGEETLVRREEIMKAVVLLMGSSQESKEMRLKAKKLADASKRTIEEGGHSYNNLLQLIDELKSLKISRELDKSRLDN
In the case of B1, the Km in “purified protein [1]” (acceptor cycloastragenol-3-O-β-D-xyloside (2)) worked out at 74.8 µmol/L.

B2: AmUGT13 (Astragalus mongholicus) (protein)
chain: MEREAENRPLKLYFLPFLAAGHMIPLCDIAMLFASRGQDVTVITTPSNAETLLKRKSNNHLHIHTVDIPSDSPQIENITSATNIDSAISVYTAAMLLRQPVEQFLRENPPDCIVADFMYQWVSEIANTLQIPRLAFNGFPLFAVCAMNSFSAHPELFSGSVSEPFNLPDLPHPITMHARSPEGIFRFYEALLKMEVESHGLIVNSFVEIESEYVEHYERTTGHKAWHLGPASLVHASNQQKSERGHISVVSENDCVSWLNSKQPNSVVYISFGSTCRFSDNQLYEIAAGVEASGHPFIWVVLEKLEEKGSKGWLPEGFEERMKEKGMIIRGWAPQVLILDHPAIGGFLTHCGWNSVVEGVSAGVPMMTWPVQADQFYNEKLITEVQGNGVEVGAVEWGVSGYGERKIVISREKIEKAVRRVMDGGDEAEEIRRRARQLAVKAKEAVREGGSSHRNLRELIRDLKLLRDSRSAN
On to B2, for which the figures for the Km in “purified protein [2]” and in “purified protein [1]” (acceptor astragaloside III (5)) were 479.6 µmol/L and 414.7 µmol/L, respectively.
